Test results reported in PMC11550485 (Science (New York, N.Y.), 2023).

Target: 6×His-GFP-tau (human, UniProt P10636-8 1-441)
Assay: pull-down

B1: GST-TRIM11 (natural protein, human, UniProt Q96F44 1-468, looked up)
chain: MAAPDLSTNLQEEATCAICLDYFTDPVMTDCGHNFCRECIRRCWGQPEGPYACPECRELSPQRNLRPNRPLAKMAEMARRLHPPSPVPQGVCPAHREPLAAFCGDELRLLCAACERSGEHWAHRVRPLQDAAEDLKAKLEKSLEHLRKQMQDALLFQAQADETCVLWQKMVESQRQNVLGEFERLRRLLAEEEQQLLQRLEEEELEVLPRLREGAAHLGQQSAHLAELIAELEGRCQLPALGLLQDIKDALRRVQDVKLQPPEVVPMELRTVCRVPGLVETLRRFRGDVTLDPDTANPELILSEDRRSVQRGDLRQALPDSPERFDPGPCVLGQERFTSGRHYWEVEVGDRTSWALGVCRENVNRKEKGELSAGNGFWILVFLGSYYNSSERALAPLRDPPRRVGIFLDYEAGHLSFYSATDGSLLFIFPEIPFSGTLRPLFSPLSSSPTPMTICRPKGGSGDTLAPQ
- binding result: binds
